Series [1] concerns the target piggyBac transposase (PB), full-length, Trichoplusia ni (Trichoplusia ni). Put plainly: SEC-MALS; purified PB at 4 and 2 mg/ml, Superdex 200 Increase 10/300, 20 mM HEPES pH 7.5, 100 mM NaCl, 1 mM TCEP; no DNA. For orientation: Size exclusion chromatography separates by hydrodynamic size, large species first.
Series [2] concerns the target T1, piggyBac transposase (PB) (Trichoplusia ni, UniProt Q283G1 1-594). Put plainly: cryo-EM; 5 mM Ca2+; Zn2+ in CRD; SNHP: 50 mM Tris-Cl pH 8.0, 100 mM NaCl, 5 mM CaCl2, 1 mM TCEP, mixed 1 h at 25 C; STC: 50 mM Tris-Cl pH 8.0, 500 mM NaCl dialyzed to 200 mM NaCl, 10 mM CaCl2. Conditions: protein: recombinant; tags: N-terminal MBP tag removed by TEV; chain copies: 2; hairpin, 35 bp stem, TTAA loop; 2 copies per PB dimer.

In series [3] the target is T1, piggyBac transposase (PB). Description: cryo-EM; 10 mM Ca2+; Zn2+ in CRD; SNHP: 50 mM Tris-Cl pH 8.0, 100 mM NaCl, 5 mM CaCl2, 1 mM TCEP, mixed 1 h at 25 C; STC: 50 mM Tris-Cl pH 8.0, 500 mM NaCl dialyzed to 200 mM NaCl, 10 mM CaCl2. The note with it: protein: recombinant; tags: N-terminal MBP tag removed by TEV; chain copies: 2; four annealed oligos, 2 copies of each; S4 pairs with S5+S6 (break between S5 and S6), 5' CCGG flap on S4; S7 pairs with 3' 11 nt of S6; central target TTAA unpaired in the complex.

T1 sequence (Q283G1 entry or part of it): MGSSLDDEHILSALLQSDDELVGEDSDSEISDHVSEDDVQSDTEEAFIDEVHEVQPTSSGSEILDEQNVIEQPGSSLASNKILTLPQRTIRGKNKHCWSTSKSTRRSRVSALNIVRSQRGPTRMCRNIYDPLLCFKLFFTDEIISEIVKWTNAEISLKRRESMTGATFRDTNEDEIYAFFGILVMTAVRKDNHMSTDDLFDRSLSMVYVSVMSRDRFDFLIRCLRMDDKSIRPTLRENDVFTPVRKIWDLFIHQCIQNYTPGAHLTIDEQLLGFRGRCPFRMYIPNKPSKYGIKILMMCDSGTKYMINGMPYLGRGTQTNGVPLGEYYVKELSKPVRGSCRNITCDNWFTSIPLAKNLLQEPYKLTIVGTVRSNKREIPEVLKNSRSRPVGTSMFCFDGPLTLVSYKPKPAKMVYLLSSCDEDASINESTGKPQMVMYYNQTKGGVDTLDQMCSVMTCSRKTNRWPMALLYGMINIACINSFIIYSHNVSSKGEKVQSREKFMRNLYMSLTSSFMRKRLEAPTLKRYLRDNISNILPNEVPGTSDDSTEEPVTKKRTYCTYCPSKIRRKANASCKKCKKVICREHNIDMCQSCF

The term stoichiometry N denotes a count of units in the complex or per binding partner. The molecule “piggyBac transposase (PB), full-length, Trichoplusia ni (enzyme)” registered a stoichiometry N in series [1] of 2.

B1: LE35hrpn (SNHP LE hairpin DNA) (structured_DNA)
DNA: CATGCGTCAATTTTACGCAGACTATCTTTCTAGGGTTAACCCTAGAAAGATAGTCTGCGTAAAATTGACGCATG
For B1, the binding result in series [2] is reported as “binds”.

B2: LE STC DNA (mixed)
DNA 1: CCGGCCCTAGAAAGATAGTCTGCGTAAAATTGACGCATGCA
DNA 2: TGCATGCGTCAATTTTACGC
DNA 3: AGACTATCTTTCTAGGGTTAAGACTGTGCCGC
DNA 4: GCGGCACAGTC
Take B2: the binding result in series [3] is “binds”.
